The values that follow come from patent US20250302974A1, “LECTIN-DRUG CONJUGATES” (UNICHEM LABORATORIES LIMITED, priority 2021, published 2025).

Data set [1] concerns ovarian cancer cell line (PA-1). The data set is described as follows: Cytotoxicity assay, cell titer glow luminescence, 72 h. Conditions: for activity against PA-1 cell lines (in words): IC50 values in nanomoles. The data set is classed as cell-based. Here is the method: (§1) T-24 Cell line were cultured in McCoy's 5a Medium Modified supplemented with 10% FBS and the PA-1 Cell line was cultured in EMEM Media supplemented with 10% FBS. The assay was performed by plating 5,000 cells/well and incubated at 37° C. overnight. […] Each concentration was added in triplicate and media-only wells used as a control. After incubation for 72 h cell titer glow (Promega) reagent (50 μL) was added to each well and the plates shaken for 5 mins and the luminescence was recorded. Percent viability was determined by dividing luminescence of the treated well by the non-treated well and multiplying by 100. Data was analysed using non-linear regression with a logarithmic scale.
(§2) 5,000 cells/well were plated and incubated at 37° C. overnight. Conjugates/vehicle control dilutions were made in respective media and added to cells. Volume added: 50 uL to each well. Starting treatment concentration was 1 uM for Conjugate of formula 16 and 18, and control SEQ ID NO: 5 alone and 10% for vehicle control (1×PBS with 20% DMA) and then diluted 10-fold down for a total of 11 treatment dilutions. Each concentration was analysed in triplicates. Media-only wells was used as a control to calculate percent viability. Cell titer glow reagent (volume: 50 uL) was added to each well, the plate was shaken for 5 mins and the luminescence was recorded. Drug Treatment Time: 72 hours. Percent viability was calculated by dividing the luminescence signal obtained for each treated well by the untreated well (media-only control) and multiplying by 100.

The subject of data set [2] is human urinary bladder cancer cell line (T-24). The data set is described as above. In kind it is cell-based. Here is the method:
as §1, §2

B1: Formula 19: Recombinant lectin of SEQ ID NO 2 (via Formula C) conjugated with Tesirine, DAR 1.32 (conjugate)
chain: TYKITVRVYQTNPDAFFHPVEKTVWKYANGGTWTITDDQHVLTMGGSGTSGTLRFHADNGESFTATFGVHNYKRWCDIVTNLAADETGMVINQQYYSQKNREEARERQLSNYQVKNAKGRNFQIVYTEAEGNDLHANLIIG
modifications: Tesirine conjugate via Formula C linker
Turning to B1, the concentration for half-maximal inhibition (IC50) in data set [1] (72 h) is 5.22 nM; in data set [1] (72 h, listed as formula 19) it was 5.22 nM. The “activity against PA-1 cell lines (in words)” value in data set [1] is “potent activity”.

B2: Formula 18: Recombinant lectin of SEQ ID NO 5 conjugated with Tesirine, DAR 1.05 (conjugate)
chain: SYKITVRVYQTNPDAFFHPVEKTVWKYANGGTWTITDDQHVLTMGGSGTSGTLRFHADNGESFTATFGVHNYKRWGDIVTNLAADETGMVINQQYYSQKNREEARERQLSNYQVKNAKGRNFQIVYTEAEGNDLHANLIIGC
modifications: Tesirine conjugate
Take B2: the half-maximal inhibitory concentration (IC50) in data set [2] (72 h) is 19.9 nM; in data set [1] (72 h), 1.04 nM. The “activity against T-24 cell lines (in words)” value in data set [2] (IC50 values in nanomoles) is listed as “potent activity”. Further, in data set [1], the “activity against PA-1 cell lines (in words)” value is reported as “potent activity”.

B3: SEQ ID NO: 5: recombinant S. rolfsii lectin variant with T1S, C76G and cysteine added at C terminal end (protein)
chain: B2 chain
modifications: C-terminal cysteine added
notes: recombinant S. rolfsii lectin variant with T1S, C76G and cysteine added at C terminal end
Regarding B3, the “cytotoxic effects below 10 μM concentration” value in data set [2] (below 10 μM) and in data set [1] (below 10 μM) was “does not exhibit major cytotoxic effects” throughout. In addition, the “IC50 values, PA-1 Cell line” value in data set [1] (72 h) came out at 16 µg/mL.
